Source: US20030157096A1 (ZymoGenetics, published 2003)

Columns and labels:
[1] = target: T1, zcytor11 and CRF2-4 receptors co-expressed on transfected BaF3 or BHK cells (human, UniProt Q08334 20-325, limits assumed); assay: flow cytometry, biotinylated IL-TIF-CEE at 10 or 1 µg/ml plus PE-streptavidin on BaF3 transfectants (same results stated for BHK transfectants)
T1 construct: whole, on cells; The two receptor subunits are co-transfected in one cell line; also called zcytor11/CRF2-4; BaF3/zcytor11/CRF2-4
T1 sequence 1: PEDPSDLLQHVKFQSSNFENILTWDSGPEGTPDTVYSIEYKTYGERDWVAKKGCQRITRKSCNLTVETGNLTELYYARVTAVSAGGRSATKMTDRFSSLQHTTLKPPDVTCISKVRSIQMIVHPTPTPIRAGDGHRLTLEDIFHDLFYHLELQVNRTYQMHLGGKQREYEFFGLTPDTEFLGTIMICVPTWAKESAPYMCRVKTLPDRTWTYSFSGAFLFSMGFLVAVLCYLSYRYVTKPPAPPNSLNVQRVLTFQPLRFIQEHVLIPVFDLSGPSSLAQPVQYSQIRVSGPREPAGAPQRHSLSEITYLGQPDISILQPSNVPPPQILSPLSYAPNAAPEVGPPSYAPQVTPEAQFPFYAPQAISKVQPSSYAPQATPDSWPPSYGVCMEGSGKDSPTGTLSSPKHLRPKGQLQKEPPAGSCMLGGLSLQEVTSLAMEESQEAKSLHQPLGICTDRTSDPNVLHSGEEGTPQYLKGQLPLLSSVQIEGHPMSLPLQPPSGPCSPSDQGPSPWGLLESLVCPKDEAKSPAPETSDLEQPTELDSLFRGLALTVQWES
T1 sequence 2: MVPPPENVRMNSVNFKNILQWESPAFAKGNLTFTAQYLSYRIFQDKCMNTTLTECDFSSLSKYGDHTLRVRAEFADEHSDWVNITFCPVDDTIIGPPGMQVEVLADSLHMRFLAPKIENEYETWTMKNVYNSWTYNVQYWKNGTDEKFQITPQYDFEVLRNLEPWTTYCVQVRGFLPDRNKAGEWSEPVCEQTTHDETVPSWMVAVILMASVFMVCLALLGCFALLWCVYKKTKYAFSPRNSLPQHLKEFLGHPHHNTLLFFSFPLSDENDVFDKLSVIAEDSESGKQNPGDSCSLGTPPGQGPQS
Excerpt: (§1) To test the binding properties of the IL-TIF ligand to several potential receptor components, BaF3 and BHK cells were transfected with expression plasmids including zcytor11 alone, CRF2-4 alone (Genbank Accession No. Z17227), zcytor11 (SEQ ID NO:1) and CRF2-4, or zcytoR11 and pDIRS1 (WIPO Publication WO99/46379, Schering Corporation, 1999), as described above. Untransfected BaF3 and BHK cells were included as controls. Cells were resuspended in FACS wash buffer (WB: PBS/1%BSA, supplemented with 3% human Ultraserum (Gemini BioProducts, Calabasas, Calif.)) counted and 1×10⁶ of each type were aliquoted into 5 ml polystyrene tubes. Cells were washed and pelleted, then incubated for 20 min on ice with 100 μl of WB only, or WB plus 10 μg/ml or 1 μg/ml biotinylated zcytolO protein. Cells were washed with 1.5 ml WB and pelleted, then incubated in 100 μl of 2.5 μg/ml phycoerthyrin-conjugated streptavidin (PE-SA, PharMingen, San Diego, Calif.) for another 20 min on ice. Cells were washed as before, resuspended in 0.4 ml of WB and analyzed on a FACScan using CellQuest software (Becton Dickinson, Mountain View, Calif.).

[2] = target: T2, zcytor11 receptor, full-length, on transfected BaF3 or BHK cells (zcytor11 alone) (human, UniProt Q8N6P7 18-574); assay: as above
T2 construct: also called BaF3/zcytor11
T2 sequence: T1 sequence 1
Excerpt: as §1

[3] = target: T3, CRF2-4 receptor, full-length, on transfected BaF3 or BHK cells (CRF2-4 alone) (UniProt Q08334 20-325, limits assumed); assay: flow cytometry, biotinylated IL-TIF-CEE plus PE-streptavidin on BaF3 transfectants (same results stated for BHK transfectants)
T3 construct: whole, on cells; The full-length receptor on cells is tied only to Genbank Z17227; also called CFR2-4; BaF3/CRF2-4
T3 sequence (looked up): T1 sequence 2
Excerpt: as §1

binding result [1]: binds
binding result [2]: binds
B1: biotinylated human IL-TIF-CEE (ligand)
chain: APISSHCRLDKSNFQQPYITNRTFMLAKEASLADNNTDVRLIGEKLFHGVSMSERCYLMKQVLNFTLEEVLFPQSDRFQPYMQEVVPFLARLSNRLSTCHIEGDDLHIQRNVQKLKDTVKKLGESGEIKAIGELDLLFMSLRNACIEYMPME
modifications: biotinylated with EZ-link Sulfo-NHS-LC-biotin (sites not given)
notes: also called biotin-IL-TIF; IL-TIF ligand
binding result [3]: no binding (tested: 10 µg/ml or 1 µg/ml biotinylated protein)
